Earlier results, collected in paper PMC4365979.

Target: Rab11 (Homo sapiens) (UniProt P62491)
Sequence of UniProt P62491 (P62491 2-213): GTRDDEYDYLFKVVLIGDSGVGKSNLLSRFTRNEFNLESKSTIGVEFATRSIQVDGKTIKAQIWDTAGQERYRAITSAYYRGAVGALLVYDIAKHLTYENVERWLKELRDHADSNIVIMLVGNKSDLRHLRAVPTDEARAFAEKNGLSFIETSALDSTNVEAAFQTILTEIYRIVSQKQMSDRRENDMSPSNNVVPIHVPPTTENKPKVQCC

- Kd: 50 nM
Substance: Rab11-FIP1/RCP (from UniProt Q6WKZ4)
